Tests used:
Assay in all cases: EMSA
Conditions in all cases: apparent Kd; RNA of Fig S1f not named, assumed U1; EMSA: 10 nM labeled RNA, 2-fold protein dilutions up to 10 uM, 2 h on ice, 1% TBE-agarose, 50 V, 4 C; binding buffer not stated (protein elution buffer 150 mM …)
[1] = system: INTS10;INTS13;INTS14 (human?;human?;human?)
[2] = system: INTS4;INTS9;INTS11 (human?;human?;human?)
INTS5;INTS8 = system: INTS5;INTS8

Work on U1 pre-snRNA stem-loop 4 with 3' box yielded a Kd [1] of 780 nM, a Kd [2] of 820 nM and a Kd (INTS5;INTS8) of 3100 nM.

— article PMC7980224
